Measured values reported in the supplement of paper PMC10567573.
± gives the standard deviation.

Assay: protein stability index of a GFP-peptide fusion (GPS, HEK-293T) (PSI 1-6); higher = more stable
[1] = treatment: DMSO, c terminus: a fixed tail appended
[2] = treatment: MLN4924 1 uM, 8 h, c terminus: a fixed tail appended
[3] = treatment: DMSO, c terminus: native
[4] = treatment: MLN4924 1 uM, 8 h, c terminus: native
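Also: 24-mer peptide tiles fused after GFP, lentivirally expressed, FACS-sorted into six equal bins by GFP/DsRed ratio, decoded by Illumina sequencing, PSI is the read-weighted mean bin number.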

Sequence | protein stability index [1] | protein stability index [2] | protein stability index [3] | protein stability index [4]
NDRDFLTRIFTEDRFAQDSEMKKC [PPEF2] | 4.61 ± 0.16 | 4.79 ± 0.21 | – | –
NDRGDHYHWKDLNRGINITIYGKT [EFHC1] | 2.5 ± 0.17 | 2.39 ± 0.54 | – | –
NECEITKRRRKSCQACRFMKCLKV [ESRRG] | 2.57 ± 0.056 | 2.95 ± 0.38 | – | –
NFARLQTCISELRMLQREGCFRSQ [M1AP] | 2.15 ± 0.31 | 2.13 ± 0.2 | – | –
NFFRMFDRNTKRDVTLEASRESSK [PPP2R2C] | 3.74 ± 0.32 | 3.73 ± 0.26 | – | –
NFSAAKSLLKKPDGVKESTESSNT [CAMK2D] | 5.35 ± 0.22 | 5.28 ± 0.35 | – | –
NGKTIEMDTQFTIRARELQNIYKC [IQUB] | 2.57 ± 1.1 | 2.8 ± 0.19 | – | –
NGRKIMGKEVKVNWATTPSSQKKD [TIA1] | 4.43 ± 0.077 | 4.55 ± 0.22 | – | –
NGTRVQEEPELVFTLGDCDVIQAL [FKBP8] | 3.72 ± 0.28 | 3.83 ± 0.17 | – | –
NGVSGPSQDLLPPPNPYPLPQEHS [TBX5] | 4.64 ± 0.33 | 4.54 ± 0.56 | – | –
NHGFEVLYHSVKQGPISTKELADF [FCHO1] | 3.4 ± 0.15 | 3.29 ± 0.17 | – | –
NHPDLAKDLTEYLKVRSHDPEEAI [PDS5B] | 4.7 ± 0.23 | 4.43 ± 0.59 | – | –
NIHPQVLLPDQARGEVPWSPELGR [ZNF263] | 4.12 ± 0.16 | 4.34 ± 0.21 | – | –
NIQANNCFSTGLSRRVLLTNVVTG [DCAF4] | 2.54 ± 0.26 | 2.63 ± 0.2 | – | –
NKLQYHAGLASGLLNQQSLKRSAN [MED27] | 3.47 ± 0.25 | 3.51 ± 0.29 | – | –
NLAAMTPHDFIEHFLSKMPEAEEN [CCND1] | 4.49 ± 0.075 | 4.49 ± 0.04 | – | –
NLAKEQLSRENIQSSLLETLYRNR [PPEF2] | 3.05 ± 0.28 | 3.22 ± 0.12 | – | –
NLFVMQVEMDIYTALKKWMFLQLV [GMCL1] | 2.74 ± 0.66 | 2.17 ± 0.39 | – | –
NLRAAGAEALGKLLQQNKSIQSLT [LRRC45] | 3.26 ± 0.19 | 3.33 ± 0.19 | – | –
NLTRRFSDLGFEVKCFNDLKAEEL [CASP6] | 2.76 ± 0.46 | 3 ± 0.27 | – | –
NLYEEGRTAFLWRGNVVLRAQMIR [TRIM43] | 2.22 ± 0.2 | 2.06 ± 0.21 | – | –
NNPEYLRERNMAPDLRQDFNMMEQ [ADD1] | 4.74 ± 0.27 | 4.87 ± 0.18 | – | –

Sequence | protein stability index [1] | protein stability index [2] | protein stability index [3] | protein stability index [4]
NPFFAKTLQHWPHIIRIGDLKPTG [DENND6A] | 2.21 ± 0.34 | 2.07 ± 0.23 | – | –
NSAIRFLRKYSFDGLDLDWEYPGS [CHIT1] | 2.38 ± 0.28 | 2.36 ± 0.32 | – | –
NSTLDPHGHLILHSMHKYQPRIHL [TBX6] | 2.19 ± 0.17 | 2.34 ± 0.26 | – | –
NSYPRADTGLFSRSKSGSEEVLCD [TRIM29] | 4.62 ± 0.33 | 4.68 ± 0.32 | – | –
NTFIALALQTLLTLIVVDASGLGL [SLC19A2] | 3.36 ± 0.57 | 3.3 ± 0.27 | – | –
NTLEGKKPGNNEGSGAPSPLSKSS [SNAP91] | 5.41 ± 0.23 | 5.35 ± 0.28 | – | –
NTVERYNPQENRWHTIAPMGTRRK [KLHL20] | 4.43 ± 0.15 | 4.59 ± 0.17 | – | –
NYSSSQDALISVSYTIITPLFNPM [OR10K2] | 3.07 ± 0.46 | 2.92 ± 0.33 | – | –
PAATEAYGSGDTPGGPCDSTLGGD [TBX6] | 5.46 ± 0.25 | 5.3 ± 0.55 | – | –
PAPKRGYSSEMKTEDELRVRHLEE [AUH] | 5.15 ± 0.48 | 4.75 ± 0.87 | – | –
PAWNSKLQYILAQIGFSVGLGNIW [SLC6A17] | 2.83 ± 0.45 | 2.47 ± 0.12 | – | –
PDDFVPPVPPPSYFATFYSCTPRM [FAM189A2] | 2.65 ± 0.15 | 2.7 ± 0.32 | – | –
PDTQALCHHLPVIRQLATSGRFIV [SMG5] | 2.07 ± 0.45 | 2.23 ± 0.44 | – | –
PEPGRAGYPAPRDEGVLRPRAHA [HAGHL] | – | – | 3.29 ± 0.19 | 3.41 ± 0.28
PERIYQGSSGSYFVKDPQGRIIAV [PI4K2A] | 2.78 ± 0.25 | 2.74 ± 0.46 | – | –
PESVERLTGVSISQVNHKPLRTA [FLOT1] | – | – | 2.66 ± 0.69 | 3.11 ± 0.18
PETMTCRLSNNQRYLFLDGDSHYE [ZFYVE21] | 2.52 ± 0.45 | 2.8 ± 0.33 | – | –
PFAFVEFEDPRDAEDAVYGRDGYD [SRSF1] | 4.76 ± 0.15 | 4.64 ± 0.2 | – | –
PFVSAMPTPMPHNKGTRFSEAWEY [ZBED2] | 2.88 ± 0.23 | 2.94 ± 0.11 | – | –
PGIDRPGMLCSFRIPGAWSCAWSL [DCAF4] | 3.32 ± 0.45 | 2.96 ± 0.61 | – | –
PGQVAGADFESEDEGEEFDDWEDD [EID1] | 5.52 ± 0.59 | 5.59 ± 0.2 | – | –
PGRRGDPDTAPPSERPLEDLRLRL [RTN2] | 4.43 ± 0.2 | 4.63 ± 0.21 | – | –

Sequence | protein stability index [1] | protein stability index [2] | protein stability index [3] | protein stability index [4]
PGSASLAQSRLEDPGADSEKSTVV [DLX1] | 5.49 ± 0.38 | 5.36 ± 0.26 | – | –
PHLPRVMLPGVLAGVSAEESWAGP [SCNN1D] | 3.37 ± 0.34 | 3.4 ± 0.24 | – | –
PHYPEYFQQPAPEYHQPQAPANVA [LOXL2] | 4.26 ± 0.2 | 4.2 ± 0.28 | – | –
PIDGTTNFVHRFPFVAVSIGFAVN [IMPA1] | 2.96 ± 0.76 | 2.39 ± 0.55 | – | –
PIGKISKNKKKKLKKKQKRQAELL [SRPK2] | 4.37 ± 0.17 | – | – | –
PKPAGGAIPTKKSLPSPSSSGHQN [FBF1] | 4.98 ± 0.14 | 4.92 ± 0.17 | – | –
PLEGSAKGKVQAELSQPLTAGGAI [RBBP5] | 4.88 ± 0.19 | 4.72 ± 0.35 | – | –
PLEPEDALSDAEFEGEGDYEEGMY [P3H4] | 5.59 ± 0.3 | 5.44 ± 0.34 | – | –
PLMVKGFRDAAEEGGTAVTGGQTV [SEPHS2] | 5.05 ± 0.3 | 5.16 ± 0.13 | – | –
PLSVHRPPTSGCLGPVPREDQAEA [TSPAN10] | 5.23 ± 0.17 | 5.1 ± 0.075 | – | –
PNIQEAVEGAMHIQECVPEDLELK [CRYL1] | 5.49 ± 0.13 | 5.57 ± 0.19 | – | –
PNQAMVVAAAGDACPPQHVPPKDS [TBC1D10A] | 5.5 ± 0.14 | 5.37 ± 0.12 | – | –
PPATQNTFGNSTLALGPGESLPHR [PLAGL1] | 4.63 ± 0.34 | 4.39 ± 0.083 | – | –
PPPDAAATAASSSASSPASVGDPC [SLC25A25] | 5.39 ± 0.14 | 5.58 ± 0.13 | – | –
PPPLGPVVPVLVFPPDLVFRADQR [MOSPD3] | 3.25 ± 0.13 | 3.22 ± 0.32 | – | –
PPPSAPASEYCPGKLSWGTMARAL [WDR88] | 3.02 ± 0.24 | 2.97 ± 0.4 | – | –
PPSVLISKNEVGIFTTPNFDETSS [KMT2E] | 4.09 ± 0.12 | 4.33 ± 0.069 | – | –
PQHVSSDKEVRAASTEADKRLSRF [NLN] | 5.3 ± 0.18 | 5.1 ± 0.22 | – | –
PRALIFSTDDFFFREDGAYEFNPD [N4BP2L1] | 2.95 ± 0.41 | 3.66 ± 0.48 | – | –
PSDPLVSIGALISKAHLEKVRSYV [ALDH8A1] | 2.05 ± 0.079 | 2.12 ± 0.13 | – | –
PSEEYGKILEVVGRYSVHNAGISF [MLH1] | 2.32 ± 0.36 | – | – | –
